According to patent US20240166765A1 (ICONIC THERAPEUTICS, published 2024):
Residue numbers refer to the chain shown, from its start. Where two headings read alike, the source gives them in different places.

B1: anti-TF antibody 25G9 (antibody, human IgG1, kappa, V domains shown)
VH: QVQLVQSGAEVKKPGASVKVSCKASGYTFRSYGISWVRQAPGQGLEWMGWVAPYSGNTNYAQKLQGRVTMTTDTSTSTAYMELRSLRSDDTAVYYCARDAGTYSPYGYGMDVWGQGTTVTVSS
VL: DIQMTQSPSTLSASVGDRVTITCQASQSIDSWLAWYQQKPGKAPKLLIYSASYLESGVPSRFSGSGSGTEFTLTISSLQPDDFATYYCQRFQSLPPFTFGGGTKVEIKR
notes: Human IgG1
B2: 25G1 (antibody, human IgG1, kappa, V domains shown)
VH: B1 VH
VL: B1 VL with Q24R, Q27H, S50K, R90L
notes: human IgG1
B3: 25A (antibody, human IgG1, V domains shown)
VH: B1 VH with R30D, S31V, V51I, S55N, Y106F
VL: DIQMTQSPSTLSASVGDRVTITCRASQSISSWLAWYQQKPGKAPKLLIYKASSLESGVPSRFSGSGSGTEFTLTISSLQPDDFATYYCQQFQSLPPFTFGGGTKVEIK
notes: human IgG1
B4: 25G9 (antibody, human IgG1, kappa, V domains shown)
VH: B1 VH
VL: B1 VL
notes: human IgG1
B5: anti-TF antibody 1G (antibody, human IgG1, V domains shown)
VH: EVQLLESGGGLVQPGGSLRLSCAASGFTFSSYAMAWVRQAPGKGLEWVSAISGSGGLTYYADSVKGRFTISRDNSKNTLYLQMNSLRAEDTAVYYCAKAPYGYYMDVWGKGTTVTVSS
VL: not shown
notes: Human IgG1
B6: 54E (antibody, human IgG1, V domains shown)
VH: QVQLVQSGAEVKKPGASVKVSCKASGYTFANYYMHWVRQAPGQGLEWMGIINPSGGITVYAQKFQGRVTMTRDTSTSTVYMELSSLRSEDTAVYYCARGGSKVAALAFDIWGQGTMVTVSS
VL: DIQMTQSPSSLSASVGDRVTITCQASQDISNSLNWYQQKPGKAPKLLIYDASNLETGVPSRFSGSRSGTDFTFTISSLQPEDIATYYCQQYNFHPLTFGGGTKVEIK
notes: Human IgG1
B7: anti-TF antibody 29D (antibody, human IgG1, V domains shown)
VH: QVQLVESGGGVVQPGRSLRLSCAASGFTFHSRGMHWVRQAPGKGLEWVAVITYDGINKYYADSVEGRFTISRDNSKNTLYLQMNSLRAEDTAVYYCARDGVYYGVYDYWGQGTLVTVSS
VL: not shown
notes: Human IgG1
B8: 29E (antibody, human IgG1, V domains shown)
VH: B7 VH with H30R, R32Y
VL: not shown
notes: Human IgG1
B9: anti-TF antibody 43D8 (antibody, human IgG1, kappa, V domains shown)
VH: QVQLQQWGAGLLKPSETLSLTCAVYGGSLSGYYWSWIRQPPGKGLEWIGEIGASGSTRYNPSLKSRVTISVDTSKNQFSLKLSSVTAADTAVYYCARDTPYYYEGGYYYYMDVWGKGTTVTVSS
VL: EIVLTQSPGTLSLSPGERATLSCRASQSVSSSFLAWYQQKPGQAPRLLIYGAYSRATGIPDRFSGSGSGTDFTLTISRLEPEDFAVYYCQQAGVVPYTFGGGTKVEIKR
notes: Human IgG1

Assays:
[1] = target: T1, human Tissue Factor (hTF), endogenously expressed on human TF-positive cells (human, UniProt P13726 33-295); test: cell-based or functional assay
[2] = target: T2, pig TF ECD-His (pig TF-His) protein (pig (Sus scrofa)); test: Biacore, antibody captured by anti-human IgG on CM5 chip, pig TF-His as analyte, 1:1 model
T2 construct: Extracellular domain with a C-terminal TG-His6 tag, used as analyte in Biacore; also called pTF
T2 chain: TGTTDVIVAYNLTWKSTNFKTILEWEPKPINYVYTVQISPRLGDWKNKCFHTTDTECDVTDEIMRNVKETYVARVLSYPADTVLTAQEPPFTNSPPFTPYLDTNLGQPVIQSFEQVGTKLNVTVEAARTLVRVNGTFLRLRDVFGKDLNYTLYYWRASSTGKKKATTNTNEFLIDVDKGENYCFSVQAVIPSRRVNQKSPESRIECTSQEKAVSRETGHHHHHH

[3] = target: T3, cynomolgus TF ECD-His6 (cynomolgus monkey (Macaca fascicularis)); test: SPR (Biacore), antibody on chip, TF-His titrated
T3 construct: made in Expi293 cells; also called TF-His; cTF
T3 chain: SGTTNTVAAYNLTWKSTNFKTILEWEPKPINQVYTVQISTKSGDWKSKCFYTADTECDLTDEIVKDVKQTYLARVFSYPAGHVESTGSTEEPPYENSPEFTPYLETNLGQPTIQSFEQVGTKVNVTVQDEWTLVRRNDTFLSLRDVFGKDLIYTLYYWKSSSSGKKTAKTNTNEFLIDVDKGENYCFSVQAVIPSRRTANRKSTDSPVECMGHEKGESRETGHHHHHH

[4] = target: T4, mouse TF ECD-His6 (mouse, UniProt P20352 29-251); test: SPR (Biacore), antibody on chip, TF-His titrated
T4 construct: made in Expi293 cells; also called TF-His; mTF

[5] = target: T5, hTF_N171H_T197K (human, UniProt P13726 33-251); test: live cell staining of transfected HEK293, flow cytometry
T5 construct: the entry already holds N171H and T197K; on transfected HEK293 cells
T5 chain: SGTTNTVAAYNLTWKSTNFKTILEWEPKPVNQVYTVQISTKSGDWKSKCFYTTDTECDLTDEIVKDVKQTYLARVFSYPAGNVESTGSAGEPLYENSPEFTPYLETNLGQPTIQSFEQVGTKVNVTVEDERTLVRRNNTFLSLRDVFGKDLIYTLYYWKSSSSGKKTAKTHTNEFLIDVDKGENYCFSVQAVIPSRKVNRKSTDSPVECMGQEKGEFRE

[6] = target: T6, hTF_K149N (human, UniProt P13726 33-251); test: as above
T6 construct: the entry already holds K149N; on transfected HEK293 cells; not shown: transmembrane and cytoplasmic part of the construct expressed on HEK293 cells
T6 chain: T5 chain with K149N, H171N, K197T

[7] = target: rTF (rat TF) on HEK293 cells (rat, UniProt P42533 29-252); test: as above
[8] = target: T3, cynomolgus TF ECD-His6; test: BLI (ForteBio Octet)
[9] = target: T4, mouse TF ECD-His6; test: BLI (ForteBio Octet)
[10] = target: T7, human TF ECD-His6 (human, UniProt P13726 33-251); test: BLI (ForteBio Octet)
T7 construct: made in Expi293 cells; the entry holds the ECD with the C-terminal TG-His6; also called TF-His; hTF

[11] = target: T7, human TF ECD-His6; test: SPR (Biacore), antibody on chip, TF-His titrated
[12] = target: T2, pig TF ECD-His (pig TF-His) protein; test: Biacore, antibody captured by anti-human IgG on CM5 chip, pig TF-His as analyte
[13] = target: T1, human Tissue Factor (hTF), endogenously …; test: flow cytometry competition on A431 cells, 100 nM unlabelled antibody, competitor 20 nM 25A-Alexa488
[14] = target: T1, human Tissue Factor (hTF), endogenously …; test: flow cytometry competition on A431 cells, 100 nM unlabelled antibody, competitor 20 nM 43Ea-Alexa488
[15] = target: T8, h78-107_r.v2 (human/rat chimera); test: live cell staining, flow cytometry
T8 construct: on HEK293 cells

[16] = target: T9, h1-107_r (human/rat chimera); test: live cell staining, flow cytometry
T9 construct: on HEK293 cells
T9 chain: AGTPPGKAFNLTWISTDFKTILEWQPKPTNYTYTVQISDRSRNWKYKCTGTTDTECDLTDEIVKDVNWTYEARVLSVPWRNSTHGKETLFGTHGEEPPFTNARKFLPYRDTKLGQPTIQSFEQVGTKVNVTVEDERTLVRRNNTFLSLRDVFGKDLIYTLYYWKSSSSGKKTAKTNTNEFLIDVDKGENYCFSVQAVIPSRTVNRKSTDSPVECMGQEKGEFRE

[17] = target: T10, h159-219_r (human/rat chimera); test: live cell staining, flow cytometry
T10 construct: on HEK293 cells

[18] = target: T11, h1-77_r (human/rat chimera); test: live cell staining, flow cytometry
T11 construct: Human TF with ECD residues 1-77 replaced by the rat segment; on HEK293 cells

[19] = target: T12, rTF (rat TF) (rat, UniProt P42533 29-252); test: live cell staining, flow cytometry
T12 construct: Expressed on the surface of transfected HEK293 cells

[20] = target: T13, r141-194_h (rat/human chimera, UniProt P42533 29-252); test: live cell staining, flow cytometry
T13 construct: on HEK293 cells

[21] = target: T14, hTF_N171H_T197K (human, UniProt P13726 33-251); test: live cell staining, flow cytometry
T14 construct: on HEK293 cells
T14 chain: T5 chain

[22] = target: T15, hTF (human, UniProt P13726 33-251); test: live cell staining, flow cytometry
T15 construct: also called human TF; human Tissue Factor

[23] = target: T12, rTF (rat TF); test: live cell staining, flow cytometry; remark: listed apart in the source

Row | Binder | % GM-CSF, 2.56 nM antibody, MDA-MB-231 cells + FVIIa [1] [%] | % GM-CSF, 6.4 nM antibody, MDA-MB-231 cells + FVIIa [1] [%] | % GM-CSF, 16 nM antibody, MDA-MB-231 cells + FVIIa [1] [%] | % GM-CSF, 40 nM antibody, MDA-MB-231 cells + FVIIa [1] [%] | % GM-CSF, 100 nM antibody, MDA-MB-231 cells + FVIIa [1] [%] | Kd [3] [nM] | binding result [5] | binding result [6] | binding result [7] | Kd [8] [nM] | Kd [9] [nM] | Kd [10] [nM] | also measured
1 | B1 | 60 | 34 | 26 | 26 | 25 |  |  |  |  |  |  |  | Kd [2]: 3.31 nM
2 | B2 |  |  |  |  |  | 0.78 | no binding | no binding | no binding (tested: 15 µg/ml (100 nM)) | 4.99 | 34.2 | 3.97 | Kd [4]: 5.4 nM
3 | B3 |  |  |  |  |  | 5.42 | no binding | no binding | no binding (tested: 15 µg/ml (100 nM)) | 7.65 | 263 | 8.45 | Kd [11]: 6.2 nM
4 | B4 |  |  |  |  |  | 16.4 | no binding | no binding | no binding (tested: 15 µg/ml (100 nM)) | 42.9 | 9.16 | 35.8 | Kd [4]: 2.9 nM; Kd [11]: 13.3 nM
5 | B5 | 34 | 9 | 7 | 7 | 7 |  |  |  |  |  |  |  | binding result [12]: no binding; % 25A binding [13]: 75%; % 43Ea binding [14]: 58%
6 | B6 |  |  |  |  |  |  |  |  |  |  |  |  | Percent antibody binding to TF construct relative to hTF [15]: 62%; Percent antibody binding to TF construct relative to hTF [16]: 0%; Percent antibody binding to TF construct relative to hTF [17]: 142%; Percent antibody binding to TF construct relative to hTF [18]: 0%; Percent antibody binding to TF construct relative to hTF [19]: 0%; Percent antibody binding to TF construct relative to hTF [20]: 0%; Percent antibody binding to TF construct relative to hTF [21]: 89%; Percent antibody binding to TF construct relative to hTF [22]: 100%; Percent antibody binding to TF construct relative to hTF [23]: 0%
7 | B7 | 38 | 15 | 7 | 6 | 5 |  |  |  |  |  |  |  | binding result [12]: no binding; % 25A binding [13]: 70%; % 43Ea binding [14]: 64%
8 | B8 |  |  |  |  |  |  |  |  |  |  |  |  | Percent antibody binding to TF construct relative to hTF [15]: 0%; Percent antibody binding to TF construct relative to hTF [16]: 0%; Percent antibody binding to TF construct relative to hTF [18]: 0%; Percent antibody binding to TF construct relative to hTF [19]: 0%; Percent antibody binding to TF construct relative to hTF [20]: 0%; Percent antibody binding to TF construct relative to hTF [21]: 98%; Percent antibody binding to TF construct relative to hTF [22]: 100%; Percent antibody binding to TF construct relative to hTF [23]: 0%
9 | B9 | 57 | 24 | 11 | 11 | 12 |  |  |  |  |  |  |  | Kd [2]: 12.9 nM
